{"source": "paper PMC3884669", "target": "Drosophila CstF64 (Drosophila (endogenous in Kc cells)) (UniProt Q86NL1)", "test": "co-IP", "data": [{"substance": "Drosophila Lsm11 (endogenous) (natural protein)", "values": [{"measurement": "percent precipitated by the anti-CstF64 antibody", "result": "> 10", "unit": "%"}]}]}
